These results are taken from patent publication US6608174B1, “Radiolabeled vasoactive intestinal peptide analogs for diagnosis and radiotherapy” (Dabur Research Foundation, priority 2000, dated 2003).

Square brackets hold non-standard residues; d marks the D form. Ends that are not written are not given here. dPhe(4-Cl) = N[C@H](Cc1ccc(Cl)cc1)C(=O)O; Aib = CC(C)(N)C(=O)O

For one experiment, the system named is VIP receptors. As to the kind of experiment: Displacement assay using 125I labeled VIP (10-28) fragment on human tumor cell lines. The settings on record: inhibition of 125I labeled VIP (10-28) fragment binding. The protocol:
Peptides of the invention were assayed for biological activity in homogeneous competition binding assays using ^125I labeled VIP peptide (SEQ ID NO:1) and in heterogeneous displacement assays using either ^125I labeled VIP (10-28) fragment (Tyr-Thr-Arg-Leu-Arg-Lys-Gln-Met-Ala-Val-Lys-Lys-Tyr-Leu-Asn-Ser-Ile-Leu-Asn-NH2) (SEQ ID NO: 12) or ^125I labeled VIP (SEQ ID NO:1). The assays were performed on a variety of human tumor cell lines.
In the practice of these methods, the peptide was radioiodinated using the iodogen method. Briefly, 5 μg of the peptide in 10 μl of 50 mM PBS (pH 7.5), an appropriate amount of the radioisotope and 50 μg-100 μg iodogen were incubated at room temperature for 15-30 min with occasional mixing. Radioiodinated peptide was purified from unincorporated radioactive iodine by purification on a Sep Pak C18 cartridge, essentially following the same procedure as described for technetium labeling.
Displacement assays were performed at 4-8° C. Briefly, 50,000 cells were plated per well of a 24 well plate and allowed to adhere overnight. Before the assay, the cells were washed twice with ice cold Binding buffer (25 mM HEPES, 10 mM MgCl2 and 1% BSA in RPMI 1640 medium). The cells were incubated for 2-3hrs with an appropriate concentration (0.1-10 nM) of ^125I labeled VIP (10-28) fragment (SEQ ID NO:12) in the presence and absence of the cold ligand (SEQ ID NO: 2) (1 nM-10 μM). The non specific binding was ascertained using 10 μM of VIP. After incubation, the cells were washed thrice with the binding buffer to remove the unbound peptide. The cells were lysed and counts were measured in a Gamma counter. From a comparison of the extent of binding in the presence or absence of the unlabeled peptide, a concentration was determined corresponding to inhibition of ^125I labeled VIP (10-28) fragment binding by 50% (termed the IC50) (TABLE III).
The following tumor cell lines were assayed using the above described displacement assay: HT29 (human colorectal adenocarcinoma); PTC (human primary tumor cells adenocarcinoma); KB (human squamous cell carcinoma); 4451 (human squamous cell carcinoma); L132 (human lung carcinoma); A549 (human lung carcinoma); HBL100 (human breast carcinoma) and PA1 (human ovarian carcinoma).
Cells were grown in RPMI 1640 supplemented with 10% fetal calf serum, glutamine and antibiotics using standard cell culture techniques (see Animal Cell Culture: A Practical Approach, Freshney, ed, IRL press: Oxford, UK, 1992).

Experiment [1] deals with VIP receptors on human tumor cell lines (human). As to the kind of experiment: displacement of 125I labeled VIP on PA1 cells. A general note: In a radioligand displacement assay an active substance lowers the binding of a labelled ligand.
Experiment [2] deals with low affinity (µM range), high surface expression receptor on human tumor cells (VIP receptor) (human). As to the kind of experiment: maximal binding, 125I-SEQ ID NO:2 on HBL 100 cells.
The target in experiment [3] is high affinity (nM range), low surface expression receptor on human tumor cells (VIP receptor) (human). As to the kind of experiment: maximal binding, 125I-SEQ ID NO:2 on HBL 100 cells.
Experiment [4] concerns the target low affinity (µM range), high surface expression receptor on human tumor cells (VIP receptor) (human). As to the kind of experiment: maximal binding, 125I-SEQ ID NO:2 on 4451 cells.
The target of experiment [5] is high affinity (nM range), low surface expression receptor on human tumor cells (VIP receptor) (human). As to the kind of experiment: maximal binding, 125I-SEQ ID NO:2 on 4451 cells.
Experiment [6] deals with VIP receptors on human tumor cell lines (human). The experiment can be described thus: displacement of 125I labeled VIP (10-28) fragment on 4451 cells.
For experiment [7], the target named is low affinity (µM range), high surface expression receptor on human tumor cells (VIP receptor) (human). As to the kind of experiment: homologous radioligand competition, 125I-SEQ ID NO:2 on PA1 cells.
The target in experiment [8] is high affinity (nM range), low surface expression receptor on human tumor cells (VIP receptor) (human). The experiment is described as above.
The target in experiment [9] is low affinity (µM range), high surface expression receptor on human tumor cells (VIP receptor) (human). As to the kind of experiment: homologous radioligand competition, 125I-SEQ ID NO:2 on 4451 cells.
In experiment [10] the target is high affinity (nM range), low surface expression receptor on human tumor cells (VIP receptor) (human). Described as above.
Experiment [11] deals with VIP receptors on human tumor cell lines (human). The experiment can be described thus: displacement of 125I labeled VIP on 4451 cells.
Experiment [12] shares this target. The experiment can be described thus: displacement of 125I labeled VIP on A549 cells.
The target is the same in experiment [13]. As to the kind of experiment: displacement of 125I labeled VIP on L132 cells.
Experiment [14] addresses low affinity (µM range), high surface expression receptor on human tumor cells (VIP receptor) (human). As to the kind of experiment: homologous radioligand competition, 125I-SEQ ID NO:2 on HBL 100 cells.
For experiment [15], the target named is high affinity (nM range), low surface expression receptor on human tumor cells (VIP receptor) (human). Described as above.
In experiment [16] the target is low affinity (µM range), high surface expression receptor on human tumor cells (VIP receptor) (human). As to the kind of experiment: homologous radioligand competition, 125I-SEQ ID NO:2 on PTC cells.
The target of experiment [17] is high affinity (nM range), low surface expression receptor on human tumor cells (VIP receptor) (human). The description is as above.
Experiment [18] concerns the target VIP receptors on human tumor cell lines (human). As to the kind of experiment: displacement of 125I labeled VIP on HBL 100 cells.
The target of experiment [19] is low affinity (µM range), high surface expression receptor on human tumor cells (VIP receptor) (human). The experiment can be described thus: maximal binding, 125I-SEQ ID NO:2 on A549 cells.
Experiment [20] addresses high affinity (nM range), low surface expression receptor on human tumor cells (VIP receptor) (human). The experiment can be described thus: maximal binding, 125I-SEQ ID NO:2 on A549 cells.
For experiment [21], the target named is low affinity (µM range), high surface expression receptor on human tumor cells (VIP receptor) (human). The experiment can be described thus: homologous radioligand competition, 125I-SEQ ID NO:2 on L132 cells.
Experiment [22] addresses high affinity (nM range), low surface expression receptor on human tumor cells (VIP receptor) (human). The experiment is described as above.

The IC50 is the concentration that gives 50% inhibition. As to “His-Ser-Asp-Aib-Val-4-Cl-D-Phe-Thr-Asp-Asn-Tyr-Thr-Arg-Leu-Arg-Lys-Gln-Leu-Ala-Val-Lys-Lys-Tyr-Leu-Asn-Ser-Ile-Leu-Asn-NH2 (HSD[Aib]V[dPhe(4-Cl)]TDNYTRLRKQLAVKKYLNSILN-NH2; N-terminus assumed; SMILES CC[C@H](C)[C@H](NC(=O)[C@H](CO)NC(=O)[C@H](CC(N)=O)NC(=O)[C@H](CC(C)C)NC(=O)[C@H](Cc1ccc(O)cc1)NC(=O)[C@H](CCCCN)NC(=O)[C@H](CCCCN)NC(=O)[C@@H](NC(=O)[C@H](C)NC(=O)[C@H](CC(C)C)NC(=O)[C@H](CCC(N)=O)NC(=O)[C@H](CCCCN)NC(=O)[C@H](CCCNC(=N)N)NC(=O)[C@H](CC(C)C)NC(=O)[C@H](CCCNC(=N)N)NC(=O)[C@@H](NC(=O)[C@H](Cc1ccc(O)cc1)NC(=O)[C@H](CC(N)=O)NC(=O)[C@H](CC(=O)O)NC(=O)[C@@H](NC(=O)[C@@H](Cc1ccc(Cl)cc1)NC(=O)[C@@H](NC(=O)C(C)(C)NC(=O)[C@H](CC(=O)O)NC(=O)[C@H](CO)NC(=O)[C@@H](N)Cc1c[nH]cn1)C(C)C)[C@@H](C)O)[C@@H](C)O)C(C)C)C(=O)N[C@@H](CC(C)C)C(=O)N[C@@H](CC(N)=O)C(N)=O) [SEQ ID NO:2, VIP receptor antagonist, preferred peptide (Xxx = Aib)]”, the IC50 with VIP receptors (4451 cells) worked out at 0.383 nM; in the experiment on VIP receptors (A549 cells) it was 0.275 nM; in the experiment with VIP receptors (HBL 100 cells), 0.236 nM; in the experiment with VIP receptors (HT29 cells) it was 0.22 nM; in the experiment on VIP receptors (KB cells), 0.35 nM; in the experiment with VIP receptors (L132 cells), 0.228 nM. Moreover, the half-inhibitory concentration (IC50) in the experiment with VIP receptors (PA1 cells) is 0.31 nM; in the experiment on VIP receptors (PTC cells), 0.132 nM.
As usually defined, the Kd is the concentration at which binding is half-saturated. In the case of HSD[Aib]V[dPhe(4-Cl)]TDNYTRLRKQLAVKKYLNSILN-NH2 (also: 125I-labelled form (iodogen) used as tracer), the half-maximal inhibitory concentration (IC50) in [1] was 7.6 nM; in experiment [6], 0.383 nM; in experiment [11] it was 7.1 nM; in experiment [12] it was 4.3 nM; in experiment [13] it was 6.8 nM; in experiment [18] it was 5.41 nM. Further, the Bmax2 in [2] was 69.1 nM; in experiment [4] it was 51 nM; in experiment [19], 48.3 nM. Moreover, the Bmax1 in [3] amounted to 697 pM; in [5], 579 pM; in experiment [20], 540 pM. The Kd was 1890 nM in experiment [7]; 5.6 nM in experiment [8]; 1910 nM in [9]; 4.48 nM in [10]; 1600 nM in experiment [14]; 2.13 nM in experiment [15]. Moreover, the Kd was determined as 1180 nM in [16], 1.77 nM in experiment [17], 1030 nM in experiment [21] and 2.6 nM in [22].
